The values below come from patent US8603473B2.

In this test the target is bovine submaxillary mucin, a source of the TAG-72 antigen (bovine). The experiment in a line: binding activity of the Chx-DTPA conjugate; assay not given.

“HuCC49 CH2 domain-deleted sc(Fv)2 tetravalent antibody conjugated with the chelator Chx-DTPA”: the avidity against conjugated control parent huCC49 lay within 5 to 6 fold.
